Assays:
[1] = biological target: T1, POTH1 in pBridge (full-length POTH1 fused with the GAL4 DNA-binding domain) (Solanum tuberosum); experiment: yeast two-hybrid deletion analysis
T1 construct: Bait of the yeast two-hybrid screen and partner of the StBEL-05 deletion constructs; also called pBHD; pBridge:POTH1
Excerpt: The Matchmaker two-hybrid system (Clontech, Calif.) was used for the yeast two-hybrid screen. Yeast transformation and plasmid rescue into DH5-α *E. coli* cells were according to the manufacturer's instructions. Full-length POTH1 was cloned into the pBridge (Clontech, Calif.) vector and used as bait to screen the potato (*S. tuberosum* 'Desireé') stolon cDNA library in pAD-GAL4-2.1 (Stratagene, Calif.). Positive interactions were confirmed by cotransforming yeast strain AH109 with each purified pAD plasmid and pBridge: POTH1 and plating on -leucine/-tryptophan (transformation control) and -leucine/-tryptophan/-histidine/-adenine (selection) nutrient medium. Induction of the AH109 reporter gene, lacZ, was measured with a yeast β-galactosidase assay kit (Pierce Chemicals). β-galactosidase activity (FIG. 9B) was determined from a known density of yeast cells and calculated as 1000 ×OD420/time of color reaction (minutes)×volume of yeast culture (ml)×$OD600$.
The StBEL-05 deletion constructs were amplified by PCR, then cloned into the vector, pGAD, in-frame with the GAL4 activation domain. POTH1 deletion constructs were amplified by PCR, and cloned into pBridge (Clontech) in-frame with the GAL4 binding domain. Sequencing of selected cDNAs and constructs was performed at the Iowa State University DNA Facility. […]

[2] = biological target: T2, StBEL-05 in pBridge (fusion with the GAL4 DNA-binding domain) (Solanum tuberosum); experiment: yeast two-hybrid, swapped vectors
T2 construct: Swapped two-hybrid orientation; also called prey cDNA cloned into pBridge

StBEL-05 [3] = experiment: In vitro binding assay of POTH1 deletion constructs with StBEL-05; design: species or system Solanum tuberosum; settings: in vitro binding protocol
Description: In vitro binding experiments were performed as described by Ni et al., “PIF3, a Phytochrome-Interacting Factor Necessary for Normal Photoinduced Signal Transduction, is a Novel Basic Helix-Loop-Helix Protein,” Cell 95:657-667 (1998), which is hereby incorporated by reference in its entirety. The full-length sequence for POTH1 was cloned into a pET17b/GAD fusion cassette and transcribed under the control of the T7 promoter. […] Each 50 μl TnT reaction contained 2.0 μg of template plasmid DNA and 20 μmol (20 μCi) of labeled ^35S-methionine. The POTH1:GAD/BEL complex was immunoprecipitated with anti-GAD antibodies (Santa Cruz Biotechnology, Calif.). The proteins from the pellet (one-half the fraction) and for the prey (one-fourth of the reaction volume) were resolved on a 10% SDS-PAGE gel and visualized by autoradiography. […] Control experiments identified the first 114 aa of the N-terminus (pBHD9) as a transcriptional activator. […] Co-transformation of pBHD9 with an empty pGAD cassette produced transformants capable of growth on -histidine, -tryptophan, -adenine, and -leucine medium and induction of lacZ. None of the other constructs containing this domain were capable of growing on selection media without StBEL-05.

StBEL-05 [4] = experiment: Yeast two-hybrid interaction of POTH1 deletion constructs with StBEL-05; type: binding, Solanum tuberosum; settings: yeast AH109
Description: The StBEL-05 deletion constructs were amplified by PCR, then cloned into the vector, pGAD, in-frame with the GAL4 activation domain. POTH1 deletion constructs were amplified by PCR, and cloned into pBridge (Clontech) in-frame with the GAL4 binding domain. Sequencing of selected cDNAs and constructs was performed at the Iowa State University DNA Facility. For deletion analysis, modified constructs of POTH1 were cloned into the pBridge vector for fusion with the DNA-binding domain of GAL4 (FIG. 10A). For StBEL-05, constructs were cloned into the pGAD vector for fusion with the activating domain of GAL4 (FIG. 10B). Deletion constructs were made from both the amino and carboxy termini. These mutants were then tested for interaction in the yeast two-hybrid system by cotransforming into yeast strain AH109 with the corresponding full-length partner (StBEL-05 in pGAL4 or POTH1 in pBridge). All constructs were sequenced to verify that they were in-frame. Positive interactions were verified for lacZ induction by using a β-galactosidase assay (Pierce Chemical Company). For POTH1, seven deletion constructs were tested (FIG. 10A). For the BEL TFs, a fusion construct of StBEL-05 (653 aa of StBEL-05 sequence) and nine deletion constructs were tested (FIG. 10B).

B1: pAD5-2 (StBEL-05 deletion construct in pGAD) (other, not shown: small tags and cut ends)
chain: EEVEQRYRQYHHQMQIIVLSFEQVAGIGSAKSYTQLALHAISKQFRCLKDAIAEQVKATSKSLGEEEGLGGKIEGSRLKFVDHHLRQQRALQQIGMMQPNAWRPQRGLPERAVSVLRAWLFEHFLHPYPKDSDKIMLAKQTGLTRSQVSNWFINARVRLWKPMVEEMYLEEVKNQEQNSTNTSGDNKNKETNISAPNEEKHPIITSSLLQDGITTTQAEISTSTISTSPTAGASLHHAHNFSFLGSFNMDNTTTTVDHIENNAKKQRNDMHKFSPSSILSSVDMEAKARESSNKGFTNPLMAAYAMGDFGRFDPHDQQMTANFHGNNGVSLTLGLPPSENLAMPVSQQNYLSNDLGSRSEMGSHYNRMGYENIDFQSGNKRFPTQLLPDFVTGNLGT
notes: Residues converted from pAD-05 numbering
binding result [1]: no binding

B2: pBHD9 construct cloned into the pGAD vector (other, not shown: large carriers)
chain: MDDEMYGFHSTRDDYADKALMSPENLMMQTEYNNFHNYTNSSILTSNPMMFGSDDIQLSSEQTNSFSTMTLQNNDNIYQIRSGNCGGGSGSGGSSKDHNDNNNNNEDYDEDGSN
notes: also called pBDH9 construct in pGAD
binding result [2]: no binding

B3: pBHD-9: POTH1 deletion construct, first amino-terminal 114 aa, no KNOX domain sequence (protein)
chain: B2 chain
pull-down of StBEL-05 (StBEL-05 [3]): unable to pull-down StBEL-05 | interaction with StBEL-05 (StBEL-05 [4]): Interaction with StBEL-05 was observed

Reference: US7265263B1, “Potato transcription factors, methods of use thereof, and a method for enhancing tuber development” (Iowa State University Research Foundation, Inc., priority 2002, dated 2007)
